The results in this text go back to paper PMC3092057.

Among the targets are TIEG1(DBD) S384A (Homo sapiens, UniProt Q13118 363-480, S384A); TIEG1(DBD) T445A (Homo sapiens, UniProt Q13118 363-480, T445A); TIEG1(DBD) S384A/T445A (Homo sapiens, UniProt Q13118 363-480, S384A;T445A); TIEG1(DBD) (Homo sapiens, UniProt Q13118 363-480); TIEG1(DBD) S384E/T445E (Homo sapiens, UniProt Q13118 363-480, S384E;T445E); TIEG1(DBD) S384E (Homo sapiens, UniProt Q13118 363-480, S384E); TIEG1(DBD) T445E (Homo sapiens, UniProt Q13118 363-480, T445E).

Holding throughout (assay): EMSA

Chain of TIEG1(DBD) (Q13118 363-480): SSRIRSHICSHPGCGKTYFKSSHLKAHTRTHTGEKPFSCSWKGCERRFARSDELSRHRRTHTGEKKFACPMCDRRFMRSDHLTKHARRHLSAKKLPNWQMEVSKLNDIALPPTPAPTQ
Chain of TIEG1(DBD) S384A/T445A (Q13118 363-480 S384A/T445A): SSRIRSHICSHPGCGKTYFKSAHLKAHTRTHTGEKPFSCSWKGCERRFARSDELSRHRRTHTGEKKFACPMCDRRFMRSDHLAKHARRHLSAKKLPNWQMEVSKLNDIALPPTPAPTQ
Chain of TIEG1(DBD) S384E (Q13118 363-480 S384E): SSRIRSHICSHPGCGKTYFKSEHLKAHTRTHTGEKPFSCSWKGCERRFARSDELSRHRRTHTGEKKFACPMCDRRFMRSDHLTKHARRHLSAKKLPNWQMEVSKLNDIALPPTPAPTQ
Chain of TIEG1(DBD) S384A (Q13118 363-480 S384A): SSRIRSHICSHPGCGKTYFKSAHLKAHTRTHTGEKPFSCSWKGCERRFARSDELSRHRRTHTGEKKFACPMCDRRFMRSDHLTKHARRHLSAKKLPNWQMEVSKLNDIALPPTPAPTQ
Chain of TIEG1(DBD) S384E/T445E (Q13118 363-480 S384E/T445E): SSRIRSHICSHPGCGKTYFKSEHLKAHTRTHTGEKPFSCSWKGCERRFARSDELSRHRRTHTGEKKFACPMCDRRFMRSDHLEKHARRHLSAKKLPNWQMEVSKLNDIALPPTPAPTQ
Chain of TIEG1(DBD) T445E (Q13118 363-480 T445E): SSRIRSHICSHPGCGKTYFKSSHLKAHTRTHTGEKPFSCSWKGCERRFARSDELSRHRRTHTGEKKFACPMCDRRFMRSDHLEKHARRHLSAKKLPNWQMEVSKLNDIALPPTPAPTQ
Chain of TIEG1(DBD) T445A (Q13118 363-480 T445A): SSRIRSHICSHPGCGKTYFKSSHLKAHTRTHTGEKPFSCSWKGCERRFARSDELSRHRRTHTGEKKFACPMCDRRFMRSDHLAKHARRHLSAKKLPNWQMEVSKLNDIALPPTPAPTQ

B1: set I TIEG1 site (dsDNA)
DNA 1: TGCAGTGAAAAGGGGGTGTGTCAGGATGC
DNA 2: TGCATCCTGACACACCCCCTTTTCACTGC
On to B1, for which the binding result in the data set with TIEG1(DBD) S384A is on record as “binds”; with TIEG1(DBD) T445A, “binds”; with TIEG1(DBD) S384A/T445A, “binds”; with TIEG1(DBD), “binds”; with TIEG1(DBD) S384E/T445E it was “no binding”; with TIEG1(DBD) S384E, “no binding”. In the data set with TIEG1(DBD) T445E, the binding result was “binds”.
